Assay results as given in publication PMC10470544, “Pathogen-specific structural features of Candida albicans Ras1 activation complex: uncovering new antifungal drug targets” (mBio, 2023).

T1: catalytic region of CaCdc25 (REM-CAT tandem) (Candida albicans, UniProt P43069)
T1 construct: PDB 7NZZ holds this construct; also called REM-CAT tandem of CaCdc25; catalytic region of the CaRas1 guanine nucleotide exchange factor CaCdc25
T1 sequence: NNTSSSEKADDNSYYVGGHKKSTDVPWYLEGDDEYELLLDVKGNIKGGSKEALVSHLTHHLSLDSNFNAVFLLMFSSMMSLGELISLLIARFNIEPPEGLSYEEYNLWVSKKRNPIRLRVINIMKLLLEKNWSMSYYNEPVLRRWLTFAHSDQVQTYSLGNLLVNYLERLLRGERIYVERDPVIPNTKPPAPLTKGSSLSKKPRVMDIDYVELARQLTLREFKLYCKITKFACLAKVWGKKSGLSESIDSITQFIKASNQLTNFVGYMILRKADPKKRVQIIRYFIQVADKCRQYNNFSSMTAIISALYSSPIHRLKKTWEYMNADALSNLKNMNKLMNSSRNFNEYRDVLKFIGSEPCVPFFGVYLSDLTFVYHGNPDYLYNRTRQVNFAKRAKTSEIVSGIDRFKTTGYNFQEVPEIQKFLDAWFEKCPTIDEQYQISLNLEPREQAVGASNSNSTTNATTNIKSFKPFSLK


Tests used:
[1] = molecular target: T1, catalytic region of CaCdc25 (REM-CAT …); test: ITC; recombinant CaCdc25 (REM-CAT tandem) titrated with CaRas1-FL or G-domain, MicroCal VP-ITC, single binding site model; conditions: both partners purified
[2] = molecular target: T1, catalytic region of CaCdc25 (REM-CAT …); test: SAXS; small angle X-ray scattering in solution, P12 beamline (EMBL, DESY), profiles extrapolated to infinite dilution; oligomeric state and stoichiometry deduced from the estimated masses (Table S1); conditions: both partners purified

Binder	Kd [1] [µM]	stoichiometry N [2]
full-length Candida albicans Ras-like protein 1 (CaRas1-FL, 1–290) (natural protein, Ras-like protein 1 (CaRas1), Candida albicans, full-length protein, residues 1-290 (G-domain 1-166, hypervariable region 167-290); Monomeric in solution by SAXS; also called full-length CaRas1) MLREYKLVVVGGGGVGKSALTIQLIQSHFVDEYDPTIEDSYRKQCTIDDQQVLLDVLDTAGQEEYSAMREQYMRTGEGFLLVYSINSLNSFQELNSFYDQILRVKDSDNVPVLVVGNKCDLEMERQVSYEDGLALANSFNCPFLETSAKQRINVEEAFYGLVRNINQYNAKIAEAEKQQQQQQQQQNANQQGQDQYGQQKDNQQSQFNNQINNNNNTSAVNGGVSSDGIIDQNGNGGVSSGQANLPNQSQSQSQRQQQQQQQEPQQQSENQFSGQKQSSSKSKNGCCVIV	9	1
isolated G-domain of CaRas1 (1–166) (domain or fragment, Ras-like protein 1 (CaRas1), Candida albicans, GTPase domain (G-domain), residues 1-166; Monomeric in solution by SAXS; also called CaRas1 G-domain) MLREYKLVVVGGGGVGKSALTIQLIQSHFVDEYDPTIEDSYRKQCTIDDQQVLLDVLDTAGQEEYSAMREQYMRTGEGFLLVYSINSLNSFQELNSFYDQILRVKDSDNVPVLVVGNKCDLEMERQVSYEDGLALANSFNCPFLETSAKQRINVEEAFYGLVRNIN	9	1
